Laboratory results reported in patent publication EP1746107B1.
Like-named read-outs stand apart in the source and are kept apart here.

Experiments:
[1] = molecular target: human C1q (Quidel, San Diego, CA) (human) (UniProt P02745); experiment: C1q binding ELISA (antibody coated, 2 µg/ml C1q added)
[2] = molecular target: FcγRI α subunit-GST fusion (UniProt P12314); experiment: ELISA on coated FcγRI α subunit-GST, monomeric IgG at 10 µg/ml
[3] = molecular target: FcγRIIIa α subunit ECD-6His-GST fusion protein (UniProt P08637); experiment: ELISA on coated receptor ECD-6His-GST, E27:chimeric IgE:VEGF immune complex
FcγRIIIa α subunit ECD-6His-GST fusion protein, sequence (P08637 17-208): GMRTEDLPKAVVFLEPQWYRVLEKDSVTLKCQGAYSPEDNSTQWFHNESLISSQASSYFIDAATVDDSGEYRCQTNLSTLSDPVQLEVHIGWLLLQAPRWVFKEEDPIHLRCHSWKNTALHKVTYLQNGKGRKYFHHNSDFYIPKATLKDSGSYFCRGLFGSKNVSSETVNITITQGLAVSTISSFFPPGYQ

[4] = molecular target: human C1q (Quidel, San Diego, CA) (human) (UniProt P02745); experiment: C1q binding ELISA (antibody coated, 2 µg/ml C1q added); remark: listed apart in the source
[5] = molecular target: FcγRIIb α subunit ECD-6His-GST fusion protein (UniProt P31994); experiment: ELISA on coated receptor ECD-6His-GST, E27:chimeric IgE:VEGF immune complex
FcγRIIb α subunit ECD-6His-GST fusion protein, sequence (P31994 43-217): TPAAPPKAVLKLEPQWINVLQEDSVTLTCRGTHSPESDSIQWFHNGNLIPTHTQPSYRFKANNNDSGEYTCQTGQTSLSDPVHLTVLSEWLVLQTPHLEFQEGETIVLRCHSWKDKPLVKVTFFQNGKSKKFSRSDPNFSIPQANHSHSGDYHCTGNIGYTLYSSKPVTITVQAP

[6] = molecular target: human C1q (Quidel, San Diego, CA) (human) (UniProt P02745); experiment: cell-based or functional assay
[7] = molecular target: CD20 antigen on WIL2-S cells (UniProt P11836); experiment: flow cytometry on WIL2-S cells expressing CD20
CD20 antigen on WIL2-S cells, sequence (P11836 whole entry, the tested form may be a part): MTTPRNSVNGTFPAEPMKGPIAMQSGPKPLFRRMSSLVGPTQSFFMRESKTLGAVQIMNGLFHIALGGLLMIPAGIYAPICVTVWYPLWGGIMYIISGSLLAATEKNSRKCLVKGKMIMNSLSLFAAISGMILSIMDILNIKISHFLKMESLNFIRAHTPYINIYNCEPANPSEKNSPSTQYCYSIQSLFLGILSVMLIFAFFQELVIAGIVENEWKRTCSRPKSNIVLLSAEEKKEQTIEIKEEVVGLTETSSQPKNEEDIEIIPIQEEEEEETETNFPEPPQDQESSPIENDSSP

[8] = molecular target: FcγRIIa α subunit ECD-6His-GST fusion protein (UniProt P12318); experiment: ELISA on coated receptor ECD-6His-GST, E27:chimeric IgE:VEGF immune complex
FcγRIIa α subunit ECD-6His-GST fusion protein, sequence (P12318 34-217): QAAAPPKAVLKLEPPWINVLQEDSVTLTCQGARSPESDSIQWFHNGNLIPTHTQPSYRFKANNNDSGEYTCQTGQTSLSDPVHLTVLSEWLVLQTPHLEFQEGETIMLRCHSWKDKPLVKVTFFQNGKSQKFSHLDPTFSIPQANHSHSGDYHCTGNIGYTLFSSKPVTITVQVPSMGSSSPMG

[9] = molecular target: human C1q (Quidel, San Diego, CA) (human) (UniProt P02745); experiment: C1q binding ELISA (antibody coated up to 100 µg/ml, 2 µg/ml C1q added)

human C1q (Quidel, San Diego, CA) (human), sequence (P02745 23-245 limits assumed, chain 1 of 3): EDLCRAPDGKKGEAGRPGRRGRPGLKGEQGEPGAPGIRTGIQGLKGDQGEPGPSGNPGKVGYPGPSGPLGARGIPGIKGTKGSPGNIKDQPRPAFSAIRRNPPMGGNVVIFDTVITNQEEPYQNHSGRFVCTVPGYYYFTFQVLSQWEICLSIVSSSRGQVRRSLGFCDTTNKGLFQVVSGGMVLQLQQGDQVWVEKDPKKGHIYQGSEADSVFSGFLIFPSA
human C1q (Quidel, San Diego, CA) (human), sequence (P02746 28-253 limits assumed, chain 2 of 3, further chain): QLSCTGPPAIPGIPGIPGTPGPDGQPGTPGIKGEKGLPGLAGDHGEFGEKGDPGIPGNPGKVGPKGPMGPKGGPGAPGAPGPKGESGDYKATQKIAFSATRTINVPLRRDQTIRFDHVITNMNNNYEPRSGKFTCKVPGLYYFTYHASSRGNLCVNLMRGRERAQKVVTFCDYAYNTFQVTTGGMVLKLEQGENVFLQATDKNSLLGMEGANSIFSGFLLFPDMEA
human C1q (Quidel, San Diego, CA) (human), sequence (P02747 29-245 limits assumed, chain 3 of 3, further chain): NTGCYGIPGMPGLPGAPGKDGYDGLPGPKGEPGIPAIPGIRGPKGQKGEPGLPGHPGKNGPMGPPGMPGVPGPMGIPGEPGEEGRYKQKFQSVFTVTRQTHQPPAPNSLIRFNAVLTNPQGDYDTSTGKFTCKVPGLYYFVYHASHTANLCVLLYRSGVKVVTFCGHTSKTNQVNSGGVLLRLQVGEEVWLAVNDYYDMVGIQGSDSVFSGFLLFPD
FcγRI α subunit-GST fusion, sequence (P12314 16-292): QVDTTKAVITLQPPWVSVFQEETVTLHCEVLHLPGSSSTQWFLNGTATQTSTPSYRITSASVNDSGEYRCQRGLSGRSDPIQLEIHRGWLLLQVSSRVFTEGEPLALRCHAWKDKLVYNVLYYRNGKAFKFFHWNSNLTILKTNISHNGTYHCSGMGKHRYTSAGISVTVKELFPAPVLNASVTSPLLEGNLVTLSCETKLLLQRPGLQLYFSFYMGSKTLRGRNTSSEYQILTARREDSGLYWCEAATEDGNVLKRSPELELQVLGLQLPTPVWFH

**Q.** C2B8 mutant K326G (antibody) was tested. Which EC50 [1] did it give?
**A.** 0.95 µg/mL

**Q.** For C2B8 mutant E333G (antibody), which EC50 [1] is on record?
**A.** 1.14 µg/mL

**Q.** Which results are given for E27 anti-IgE antibody mutant P329A?
**A.** binding, percentage of the wild type (% of wild type) [2]: 104; binding, percentage of the wild type (% of wild type) [3]: 85

**Q.** Which EC50 [1] does the source give for C2B8 mutant K326M (antibody) here?
**A.** 0.67 µg/mL

**Q.** And the fold increase in binding to C1q compared to wild type [4]?
**A.** 2 fold

**Q.** Which results are given for E27 anti-IgE antibody mutant K320A?
**A.** binding, percentage of the wild type (% of wild type) [2]: 102; binding, percentage of the wild type (% of wild type) [3]: 72; binding, percentage of the wild type (% of wild type) [5]: 83

**Q.** For “C2B8 double mutant K326W-E333S (antibody)”, which CDC compared to wild type C2B8 [6] is on record?
**A.** 3 fold

**Q.** For C2B8 mutant E318A (antibody), which CDC (% of wild type) [6] is on record?
**A.** 108

**Q.** What about the CD20 binding (EC50), percentage of the wild type (% of wild type) [7] of the same substance?
**A.** 89

**Q.** And the decrease in binding to C1q compared to wild type C2B8 [1]?
**A.** 30%

**Q.** How did the EC50 [1] turn out when C2B8 mutant K326E (antibody) was run?
**A.** 1.08 µg/mL

**Q.** And the fold increase in binding to C1q compared to wild type [4]?
**A.** 2 fold

**Q.** Which results are given for E27 anti-IgE antibody mutant P331A?
**A.** binding, percentage of the wild type (% of wild type) [2]: 74; binding, percentage of the wild type (% of wild type) [3]: 73; binding, percentage of the wild type (% of wild type) [8]: 86; binding, percentage of the wild type (% of wild type) [5]: 58

**Q.** For C2B8 mutant E333V (antibody), which EC50 [1] is on record?
**A.** 1.18 µg/mL

**Q.** Which results are given for C2B8 mutant P331A (antibody)?
**A.** CD20 binding (EC50), percentage of the wild type (% of wild type) [7]: 103; fold lower than wild type C2B8 in binding to C1q [9]: 60 fold

**Q.** How did the EC50 [1] turn out when C2B8 mutant E333D (antibody) was run?
**A.** 1.22 µg/mL

**Q.** “C2B8 mutant with A327 of the human IgG1 constant region changed to glycine (antibody)” was tested. Which increase in C1q binding [1] did it give?
**A.** 50%

**Q.** What does the source list for C2B8 mutant E333S (antibody)?
**A.** EC50 [1]: 0.81 µg/mL; fold increase in binding to C1q compared to wild type [1]: 2 fold

**Q.** What does the source list for “C2B8 double mutant K326A-E333A (antibody)”?
**A.** CDC compared to wild type C2B8 [6]: 2 fold; fold better at binding human C1q than wild type C2B8 [1]: 3 fold

**Q.** How did the EC50 [1] turn out when C2B8 mutant K334A (antibody) was run?
**A.** 1.07 µg/mL

**Q.** Which results are given for C2B8 mutant K320A (antibody)?
**A.** CDC (% of wild type) [6]: 108; CD20 binding (EC50), percentage of the wild type (% of wild type) [7]: 102

**Q.** How did the EC50 [1] turn out when C2B8 mutant K326A (antibody) was run?
**A.** 1.03 µg/mL

**Q.** What about the increase in binding to C1q [1] of the same substance?
**A.** 30%

**Q.** For C2B8 mutant E333Q (antibody), which EC50 [1] is on record?
**A.** 1.52 µg/mL

**Q.** C2B8 mutant E333A (antibody) was tested. Which EC50 [1] did it give?
**A.** 0.98 µg/mL

**Q.** What about the increase in binding to C1q [1] of the same substance?
**A.** 30%

**Q.** Which results are given for “C2B8 double mutant K326M-E333S (antibody)”?
**A.** CDC compared to wild type C2B8 [6]: 2 fold; fold better at binding human C1q than wild type C2B8 [1]: 3 fold

**Q.** C2B8 mutant K326D (antibody) was tested. Which EC50 [1] did it give?
**A.** 0.76 µg/mL

**Q.** What about the fold increase in binding to C1q compared to wild type [4] of the same substance?
**A.** 2 fold

**Q.** How did the EC50 [1] turn out when C2B8 mutant K326V (antibody) was run?
**A.** 1.3 µg/mL

**Q.** Which results are given for E27 anti-IgE antibody mutant K322A?
**A.** binding, percentage of the wild type (% of wild type) [8]: 109; binding, percentage of the wild type (% of wild type) [5]: 101

**Q.** C2B8 mutant P329A (antibody) was tested. Which CD20 binding (EC50), percentage of the wild type (% of wild type) [7] did it give?
**A.** 112

**Q.** For C2B8 mutant K326W (antibody), which EC50 [1] is on record?
**A.** 0.47 µg/mL

**Q.** And the fold increase in binding to C1q compared to wild type [1]?
**A.** 5 fold

**Q.** And the fold increase in binding to C1q compared to wild type [4]?
**A.** 2 fold

**Q.** With E27 anti-IgE antibody mutant E318A as the substance, how does the binding, percentage of the wild type (% of wild type) [2] read?
**A.** 93

**Q.** And the binding, percentage of the wild type (% of wild type) [3]?
**A.** 104

**Q.** And the binding, percentage of the wild type (% of wild type) [8]?
**A.** 113

**Q.** And the binding, percentage of the wild type (% of wild type) [5]?
**A.** 106
